Test results: the supplement of paper PMC9732359
± gives the uncertainty stated by the source.

Assay: protein stability index of a GFP-peptide fusion (yeast GPS) (PSI 1-4); higher = more stable; sorted into four equal gates, so the index is relative within each strain
Outline: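 Plasmids isolated from each sorting gate were PCR-amplified and Illumina-sequenced, and barcodes assigned the reads to strains. The gates, four of equal size, were set by GFP/Cherry fluorescence ratio on mid-log cultures in leucine-free medium. These cultures were yeast carrying a pooled library of tiled 17-residue yeast protein peptides fused downstream of GFP on a plasmid that also expresses Cherry. The protein stability index is the sum of every gate's read frequency times its gate number.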

Sequence | protein stability index (doa10∆) | protein stability index (pdr5∆) | protein stability index (san1∆) | protein stability index (ubr1∆)
QPMISPDNSIFGDTKSE [SWI3] | 3.14 ± 0.059 | 3.38 ± 0.087 | 2.94 ± 0.098 | 3.1 ± 0.061
DDEPTTPAELVGKFLGY [FAS1] | 3.51 ± 0.13 | 3.34 ± 0.14 | 3.16 ± 0.08 | 3.2 ± 0.12
EEREGTDQSTEEEKSVD [CSL4] | 3.16 ± 0.16 |  |  | 
LYVDSESTSSTEEVEAL [MTW1] | 2.92 ± 0.11 | 3.76 ± 0.15 | 3.14 ± 0.19 | 3.24 ± 0.11
EKLTLVTLSEIYNELSY [CSN9] | 1.48 ± 0.047 | 1.66 ± 0.036 | 1.57 ± 0.073 | 1.49 ± 0.046
KTATVKINKKLNKAGKP [RPL38] | 2.73 ± 0.17 | 3.21 ± 0.11 | 3.22 ± 0.098 | 3.19 ± 0.1
REQHIDTICQSIQEQIQ [SNF5] | 3.12 ± 0.068 | 3.25 ± 0.11 | 3.25 ± 0.053 | 3.3 ± 0.068
PIPSSETKADGILLETI [RRP6] | 2.86 ± 0.1 | 2.36 ± 0.065 | 2.12 ± 0.1 | 2.53 ± 0.052
PTTNEPAKPALSFGTAT [YJL041W/NSP1] | 2.97 ± 0.074 | 3.08 ± 0.063 | 2.96 ± 0.053 | 3.12 ± 0.042
WIKFDQELYNELCKKNE [RPN7] | 3.12 ± 0.13 | 3.05 ± 0.28 | 2.79 ± 0.17 | 3.1 ± 0.17
EKNYDRKEPPATVEECV [PRE6] | 3.3 ± 0.14 | 3.29 ± 0.12 | 3.11 ± 0.079 | 3.3 ± 0.072
FAIRDDRDHINPDDLMK [RPT4] | 2.65 ± 0.15 | 2.99 ± 0.14 | 3.51 ± 0.093 | 3.33 ± 0.11
VSFNDSQSMVTNKENNI [YIL149C/MLP2] | 2.96 ± 0.057 | 3.3 ± 0.076 | 3.02 ± 0.057 | 3.16 ± 0.046
KTLHSQMMSKGIGALFT [RPC34] |  |  |  | 3.18 ± 0.21
DRQIINEKMQLLKDIFA [SIR4] | 2.25 ± 0.042 | 2.64 ± 0.054 | 2.31 ± 0.058 | 1.92 ± 0.047
ESRKAFFLGYMINRLLL [RPB2] | 1.17 ± 0.092 | 1.17 ± 0.11 | 1.12 ± 0.09 | 1.09 ± 0.072
FTVDKKIAERSLLLKNY [SKP1] | 3.44 ± 0.15 | 3.11 ± 0.14 | 2.92 ± 0.14 | 3.38 ± 0.27
VSECIILGQTMSIGTGS [RPO31] | 2.06 ± 0.078 | 2 ± 0.061 | 1.89 ± 0.086 | 2.58 ± 0.055
TEKEEDAELMADEEEEI [ISW2] | 3.5 ± 0.18 | 3.38 ± 0.13 | 3.41 ± 0.083 | 3.34 ± 0.17
KRTIRIKTQQHILPEVP [TAF14] | 1.92 ± 0.059 | 2.02 ± 0.049 | 2.2 ± 0.066 | 2.07 ± 0.063
EVYTKTIEVLDEVITEG [POP7] | 2.84 ± 0.069 | 3.12 ± 0.064 | 3.15 ± 0.053 | 3.03 ± 0.067
ALLIAGHDADDGYQLFH [PUP2] | 2.29 ± 0.16 | 2.86 ± 0.17 | 3.22 ± 0.12 | 2.66 ± 0.13
DASPAPSNESCSPWSLQ [SRB5] | 2.72 ± 0.071 | 2.43 ± 0.052 | 2.86 ± 0.046 | 2.33 ± 0.033
DDYSNLKREERQGLIHQ [SMC3] | 2.21 ± 0.2 | 2.6 ± 0.1 | 1.96 ± 0.21 | 2.7 ± 0.11
ASLADVMSIESLVEVVF [FAS1] | 2.89 ± 0.08 | 2.18 ± 0.067 | 1.78 ± 0.091 | 2.97 ± 0.062
NFYLKRFISDLLWLVLI [SWI1] | 1.8 ± 0.054 | 1.88 ± 0.065 | 1.86 ± 0.095 | 1.59 ± 0.046
RNDSTVNDSVISAPSME [BRN1] | 2.71 ± 0.085 | 2.95 ± 0.083 | 2.78 ± 0.061 | 2.96 ± 0.061

Sequence | protein stability index (doa10∆) | protein stability index (pdr5∆) | protein stability index (san1∆) | protein stability index (ubr1∆)
SNKPCMGIVQDTLCGIR [RPO21] | 2.45 ± 0.065 | 1.8 ± 0.067 | 2.15 ± 0.073 | 1.77 ± 0.088
VIDLEKIKFDESSKLMT [BRR2] | 1.27 ± 0.1 | 1.43 ± 0.086 | 1.18 ± 0.25 | 1.32 ± 0.053
APLNLEIPAYEFDGDKV [RIP1] | 2.6 ± 0.099 | 2.54 ± 0.096 | 2.55 ± 0.077 | 2.72 ± 0.077
RSTDVWYEASTWIQQFK [ARP7] |  | 3.64 ± 0.13 | 2.45 ± 0.28 | 2.97 ± 0.13
NYTDLIWFPEDFISPEL [MED1] | 2.56 ± 0.058 | 2.61 ± 0.058 | 2.82 ± 0.067 | 2.56 ± 0.032
TAEINCFMHLLVQLFLW [RPN3] | 1.77 ± 0.063 | 2.05 ± 0.051 | 1.68 ± 0.14 | 2.73 ± 0.072
TFDGKPTATPSPFRPLE [YMR153W/NUP53] | 3.02 ± 0.086 | 2.15 ± 0.087 | 2.38 ± 0.12 | 2.58 ± 0.071
KRAEKAARKAEKAKSAG [RPL24B] | 2.91 ± 0.073 | 2.48 ± 0.051 | 1.55 ± 0.087 | 2.92 ± 0.04
SCGYPSAKTRSHNWAAK [RPL37B] | 2.95 ± 0.076 | 3.15 ± 0.059 | 3.3 ± 0.09 | 2.91 ± 0.069
RSINNLIQEHDSRKNRE [BRN1] | 3.24 ± 0.065 | 3.37 ± 0.052 | 3.15 ± 0.043 | 3.38 ± 0.053
VYINPSGEKIDFLLSDW [BRR2] | 1.61 ± 0.1 | 2.49 ± 0.097 | 3.22 ± 0.12 | 2.38 ± 0.073
SANVELFKRDCNQMENL [YCS4] | 3.38 ± 0.1 | 3.35 ± 0.09 | 3.4 ± 0.062 | 3.35 ± 0.074
ILTREVQNSTLAQLTSK [RPS1B] | 2.14 ± 0.069 | 2.71 ± 0.055 | 2.48 ± 0.075 | 2.45 ± 0.04
DKLSGCYAPRPSAGPHK [RPS4A] | 2.2 ± 0.065 | 1.96 ± 0.063 | 1.76 ± 0.099 | 1.64 ± 0.041
VKKAVTVHSKSRTRAHA [RPL19A] | 3.2 ± 0.1 | 3.2 ± 0.13 | 2.67 ± 0.12 | 3.16 ± 0.1
NVTLVNGKRRMNPGPSV [RPS30A] | 2.37 ± 0.059 | 2.79 ± 0.035 | 2.67 ± 0.055 | 2.65 ± 0.039
SNTIDELSTDIILKTRQ [SRB7] | 2.96 ± 0.076 | 3.19 ± 0.083 | 3.18 ± 0.089 | 3.03 ± 0.063
PIPIPAFADRLGQYVQA [PRE10] | 2.21 ± 0.08 | 1.95 ± 0.062 | 1.75 ± 0.11 | 2.07 ± 0.097
NASQMGNTGSGGYDNAW [RPB3] | 3.36 ± 0.28 | 3.31 ± 0.17 | 3.52 ± 0.2 | 2.5 ± 0.15
VKIIRKSETSGRYASYR [RPB5] | 3.09 ± 0.076 | 3.04 ± 0.05 | 3.01 ± 0.053 | 3.09 ± 0.045
LQIGDVVERHLEDGDVV [RPO31] | 3.38 ± 0.088 | 3.43 ± 0.095 | 3.49 ± 0.069 | 3.39 ± 0.098
IKVEGAVGNLGNAVTVT [RPL22A] | 3.39 ± 0.14 | 3.18 ± 0.13 | 3.15 ± 0.083 | 3.06 ± 0.079
KRRFGELMDRTGLKLYS [RPP1] | 2.21 ± 0.18 | 2.98 ± 0.12 | 2.23 ± 0.11 | 2.45 ± 0.11
SYSPTSPSYSPTSPSYS [RPO21] | 2.53 ± 0.042 | 2.66 ± 0.041 | 2.78 ± 0.037 | 2.76 ± 0.034
PLQVARCTKIIKGNGES [RPT1] | 2.96 ± 0.16 | 2.96 ± 0.081 | 2.72 ± 0.09 | 2.01 ± 0.14
SEVLVDTLDSKSNGSSD [ISW2] | 3.07 ± 0.07 | 3.15 ± 0.066 | 3.11 ± 0.054 | 3.04 ± 0.058
